Assay results reported in the supplement of paper PMC10567573.

B1: HMOX1 (parent)
chain: YHIYVALEEEIERNKESPVFAPVY

Variants of: B1
Experiment: protein stability index of a GFP-peptide fusion (GPS, HEK-293T) (PSI 1-6); higher = more stable
Settings: c terminus: a fixed tail appended
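Further: lentivirally expressed fusions sorted by FACS into six bins by GFP to DsRed ratio, PSI derived from sequencing read proportions per bin multiplied by bin number.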

| Variant | protein stability index |
| --- | --- |
| YHIYVALEEEIERNKESPVCAPVY | 3.24 |
| YHIYVALEEEIERNKESPVEAPVY | 2.52 |
| YHIYVALEEEIERNKESPVAAPVY | 2.41 |
| YHIYVALEEEIERNKESPVDAPVY | 2.95 |
| YHIYVALEEEIHRNKESPVFAPVY | 1.58 |
| YHIYVALEEEIWRNKESPVFAPVY | 2.27 |
| YHIYVALEEEIGRNKESPVFAPVY | 3.07 |
| YHIYVALEEEIPRNKESPVFAPVY | 3.7 |
| YHIYVALEEEIVRNKESPVFAPVY | 1.93 |
| YHIYVALEEEIIRNKESPVFAPVY | 1.45 |
| YHIYVALEEEICRNKESPVFAPVY | 1.52 |
| YHIYVALEEEIMRNKESPVFAPVY | 1.2 |
| YHIYVALEEEISRNKESPVFAPVY | 2.42 |
| YHIYVALEEEINRNKESPVFAPVY | 2.29 |
| YHIYVALEEEILRNKESPVFAPVY | 1.83 |
| YHIYVALEEEIFRNKESPVFAPVY | 2.35 |
| YHIYVALEEEIQRNKESPVFAPVY | 1.95 |
| YHIYVALEEEIDRNKESPVFAPVY | 1.43 |
| YHIYVALEEEIRRNKESPVFAPVY | 1.62 |
| YHIYVALEEEIARNKESPVFAPVY | 1.68 |
| YHIYVALEEEITRNKESPVFAPVY | 1.85 |
| YHIYVALEEEIKRNKESPVFAPVY | 1.94 |
| YHIYVALEEKIERNKESPVFAPVY | 1.99 |
| YHIYVALEEWIERNKESPVFAPVY | 1.26 |

| Variant | protein stability index |
| --- | --- |
| YHIYVALEEMIERNKESPVFAPVY | 1.77 |
| YHIYVALEEIIERNKESPVFAPVY | 1.74 |
| YHIYVALEEGIERNKESPVFAPVY | 1.54 |
| YHIYVALEEYIERNKESPVFAPVY | 2 |
| YHIYVALEENIERNKESPVFAPVY | 3.21 |
| YHIYVALEERIERNKESPVFAPVY | 1.56 |
| YHIYVALEEVIERNKESPVFAPVY | 1.92 |
| YHIYVALEECIERNKESPVFAPVY | 1.93 |
| YHIYVALEEDIERNKESPVFAPVY | 2.93 |
| YHIYVALEEQIERNKESPVFAPVY | 2.7 |
| YHIYVALEETIERNKESPVFAPVY | 2.83 |
| YHIYVALEESIERNKESPVFAPVY | 2.81 |
| YHIYVALEEAIERNKESPVFAPVY | 2.59 |
| YHIYVALEELIERNKESPVFAPVY | 2.27 |
| YHIYVALEEHIERNKESPVFAPVY | 1.97 |
| YHIYVALEEFIERNKESPVFAPVY | 1.78 |
| YHIYVALEEEIERNKESPHFAPVY | 2.13 |
| YHIYVALEEEIERNKESPAFAPVY | 2.3 |
| YHIYVALEEEIERNKESPKFAPVY | 1.99 |
| YHIYVALEEEIERNKESPLFAPVY | 1.7 |
| YHIYVALEEEIERNKESPGFAPVY | 2.37 |
| YHIYVALEEEIERNKESPSFAPVY | 2.15 |
| YHIYVALEEEIERNKESPPFAPVY | 2.35 |
| YHIYVALEEEIERNKESPDFAPVY | 2.7 |

| Variant | protein stability index |
| --- | --- |
| YHIYVALEEEIERNKESPRFAPVY | 3.44 |
| YHIYVALEEEIERNKESPTFAPVY | 2.32 |
| YHIYVALEEEIERNKESPQFAPVY | 2.14 |
| YHIYVALEEEIERNKESPNFAPVY | 2.69 |
| YHIYVALEEEIERNKESPEFAPVY | 2.93 |
| YHIYVALEEEIERNKESPMFAPVY | 2.24 |
| YHIYVALEEEIERNKESPYFAPVY | 1.46 |
| YHIYVALEEEIERNKESPCFAPVY | 1.81 |
| YHIYVALEEEIERNKESPWFAPVY | 1.57 |
| YHIYVALEEEIERNKESPFFAPVY | 1.84 |
| YHIYVALEEEIERNKESPIFAPVY | 1.72 |
| YHIYVALEEEQERNKESPVFAPVY | 2.01 |
| YHIYVALEEEFERNKESPVFAPVY | 1.6 |
| YHIYVALEEEMERNKESPVFAPVY | 2.16 |
| YHIYVALEEEAERNKESPVFAPVY | 1.31 |
| YHIYVALEEENERNKESPVFAPVY | 1.48 |
| YHIYVALEEEPERNKESPVFAPVY | 2.07 |
| YHIYVALEEEVERNKESPVFAPVY | 1.84 |
| YHIYVALEEEWERNKESPVFAPVY | 2.18 |
| YHIYVALEEERERNKESPVFAPVY | 1.56 |
| YHIYVALEEEKERNKESPVFAPVY | 2.05 |
| YHIYVALEEEEERNKESPVFAPVY | 1.89 |
| YHIYVALEEEGERNKESPVFAPVY | 2.24 |
| YHIYVALEEECERNKESPVFAPVY | 2.46 |

| Variant | protein stability index |
| --- | --- |
| YHIYVALEEEYERNKESPVFAPVY | 2.21 |
| YHIYVALEEEDERNKESPVFAPVY | 1.58 |
| YHIYVALEEETERNKESPVFAPVY | 1.54 |
| YHIYVALEEELERNKESPVFAPVY | 1.57 |
| YHIYVALEEESERNKESPVFAPVY | 2.15 |
| YHIYVALEEEHERNKESPVFAPVY | 2.01 |
| YHIYVALEEEIERNKFSPVFAPVY | 2.84 |
| YHIYVALEEEIERNKWSPVFAPVY | 2.14 |
| YHIYVALEEEIERNKQSPVFAPVY | 2.11 |
| YHIYVALEEEIERNKGSPVFAPVY | 2.04 |
| YHIYVALEEEIERNKMSPVFAPVY | 1.8 |
| YHIYVALEEEIERNKRSPVFAPVY | 1.8 |
| YHIYVALEEEIERNKNSPVFAPVY | 2.25 |
| YHIYVALEEEIERNKSSPVFAPVY | 2.04 |
| YHIYVALEEEIERNKCSPVFAPVY | 1.57 |
| YHIYVALEEEIERNKVSPVFAPVY | 2.14 |
| YHIYVALEEEIERNKPSPVFAPVY | 2.23 |
| YHIYVALEEEIERNKASPVFAPVY | 2.67 |
| YHIYVALEEEIERNKYSPVFAPVY | 1.88 |
| YHIYVALEEEIERNKLSPVFAPVY | 2.32 |
| YHIYVALEEEIERNKKSPVFAPVY | 2.13 |
| YHIYVALEEEIERNKTSPVFAPVY | 2.12 |
| YHIYVALEEEIERNKDSPVFAPVY | 1.59 |
| YHIYVALEEEIERNKISPVFAPVY | 1.42 |

| Variant | protein stability index |
| --- | --- |
| YHIYVALEEEIERNKHSPVFAPVY | 2.08 |
| YHIYVALEEEIERNHESPVFAPVY | 1.42 |
| YHIYVALEEEIERNSESPVFAPVY | 1.98 |
| YHIYVALEEEIERNWESPVFAPVY | 2.21 |
| YHIYVALEEEIERNIESPVFAPVY | 1.87 |
| YHIYVALEEEIERNCESPVFAPVY | 2.2 |
| YHIYVALEEEIERNYESPVFAPVY | 2.13 |
| YHIYVALEEEIERNTESPVFAPVY | 1.36 |
| YHIYVALEEEIERNVESPVFAPVY | 1.83 |
| YHIYVALEEEIERNLESPVFAPVY | 2.22 |
| YHIYVALEEEIERNQESPVFAPVY | 2.59 |
| YHIYVALEEEIERNAESPVFAPVY | 2.92 |
| YHIYVALEEEIERNPESPVFAPVY | 1.53 |
| YHIYVALEEEIERNGESPVFAPVY | 1.9 |
| YHIYVALEEEIERNRESPVFAPVY | 1.38 |
| YHIYVALEEEIERNFESPVFAPVY | 2.13 |
| YHIYVALEEEIERNEESPVFAPVY | 1.37 |
| YHIYVALEEEIERNNESPVFAPVY | 1.7 |
| YHIYVALEEEIERNDESPVFAPVY | 1.57 |
| YHIYVALEEEIERNKESVVFAPVY | 1.59 |
| YHIYVALEEEIERNKESEVFAPVY | 2.59 |
| YHIYVALEEEIERNKESLVFAPVY | 1.53 |
| YHIYVALEEEIERNKESYVFAPVY | 1.89 |
| YHIYVALEEEIERNKESFVFAPVY | 1.79 |

| Variant | protein stability index |
| --- | --- |
| YHIYVALEEEIERNKESRVFAPVY | 1.98 |
| YHIYVALEEEIERNKESMVFAPVY | 1.75 |
| YHIYVALEEEIERNKESCVFAPVY | 1.85 |
| YHIYVALEEEIERNKESIVFAPVY | 1.49 |
| YHIYVALEEEIERNKESTVFAPVY | 2.06 |
| YHIYVALEEEIERNKESWVFAPVY | 2.31 |
| YHIYVALEEEIERNKESSVFAPVY | 2.13 |
| YHIYVALEEEIERNKESGVFAPVY | 2.46 |
| YHIYVALEEEIERNKESAVFAPVY | 2.14 |
| YHIYVALEEEIERNKESHVFAPVY | 2.23 |
| YHIYVALEEEIERNKESQVFAPVY | 1.61 |
| YHIYVALEEEIERNKESNVFAPVY | 2.36 |
| YHIYVALEEEIERNKESDVFAPVY | 2.3 |
| YHIYVALEEEIERNKESKVFAPVY | 2.03 |
| YHIYVALEEEIERSKESPVFAPVY | 2.54 |
| YHIYVALEEEIEREKESPVFAPVY | 1.98 |
| YHIYVALEEEIERQKESPVFAPVY | 2.62 |
| YHIYVALEEEIERLKESPVFAPVY | 2.05 |
| YHIYVALEEEIERIKESPVFAPVY | 1.26 |
| YHIYVALEEEIERHKESPVFAPVY | 2.14 |
| YHIYVALEEEIERVKESPVFAPVY | 1.49 |
| YHIYVALEEEIERAKESPVFAPVY | 1.72 |
| YHIYVALEEEIERRKESPVFAPVY | 2.32 |
| YHIYVALEEEIERFKESPVFAPVY | 2.15 |

| Variant | protein stability index |
| --- | --- |
| YHIYVALEEEIERDKESPVFAPVY | 2.06 |
| YHIYVALEEEIERTKESPVFAPVY | 2.81 |
| YHIYVALEEEIERMKESPVFAPVY | 2.31 |
| YHIYVALEEEIERCKESPVFAPVY | 1.32 |
| YHIYVALEEEIERYKESPVFAPVY | 1.45 |
| YHIYVALEEEIERGKESPVFAPVY | 1.98 |
| YHIYVALEEEIERKKESPVFAPVY | 2.12 |
| YHIYVALEEEIEMNKESPVFAPVY | 1.4 |
| YHIYVALEEEIETNKESPVFAPVY | 1.19 |
| YHIYVALEEEIEFNKESPVFAPVY | 2.97 |
| YHIYVALEEEIEWNKESPVFAPVY | 2.25 |
| YHIYVALEEEIEINKESPVFAPVY | 2.02 |
| YHIYVALEEEIEKNKESPVFAPVY | 2.14 |
| YHIYVALEEEIEQNKESPVFAPVY | 1.54 |
| YHIYVALEEEIECNKESPVFAPVY | 1.39 |
| YHIYVALEEEIEGNKESPVFAPVY | 1.55 |
| YHIYVALEEEIEDNKESPVFAPVY | 1.52 |
| YHIYVALEEEIESNKESPVFAPVY | 2.23 |
| YHIYVALEEEIEENKESPVFAPVY | 1.34 |
| YHIYVALEEEIEVNKESPVFAPVY | 2.02 |
| YHIYVALEEEIELNKESPVFAPVY | 1.22 |
| YHIYVALEEEIEHNKESPVFAPVY | 1.75 |
| YHIYVALEEEIENNKESPVFAPVY | 1.23 |
| YHIYVALEEEIEPNKESPVFAPVY | 2.11 |

| Variant | protein stability index |
| --- | --- |
| YHIYVALEEEIEANKESPVFAPVY | 1.34 |
| YHIYVALEEEIERNKECPVFAPVY | 1.86 |
| YHIYVALEEEIERNKEWPVFAPVY | 2.65 |
| YHIYVALEEEIERNKEYPVFAPVY | 1.26 |
| YHIYVALEEEIERNKEAPVFAPVY | 2.27 |
| YHIYVALEEEIERNKEHPVFAPVY | 1.83 |
| YHIYVALEEEIERNKEKPVFAPVY | 2.14 |
| YHIYVALEEEIERNKENPVFAPVY | 2.05 |
| YHIYVALEEEIERNKELPVFAPVY | 2.19 |
| YHIYVALEEEIERNKEPPVFAPVY | 2.02 |
| YHIYVALEEEIERNKEEPVFAPVY | 1.85 |
| YHIYVALEEEIERNKETPVFAPVY | 1.69 |
| YHIYVALEEEIERNKEFPVFAPVY | 1.88 |
| YHIYVALEEEIERNKEQPVFAPVY | 1.57 |
| YHIYVALEEEIERNKEVPVFAPVY | 1.65 |
| YHIYVALEEEIERNKEMPVFAPVY | 1.93 |
| YHIYVALEEEIERNKERPVFAPVY | 2.2 |
| YHIYVALEEEIERNKEDPVFAPVY | 2.3 |
| YHIYVALEEEIERNKEGPVFAPVY | 2.29 |
| YHIYVALEEEIERNKEIPVFAPVY | 2.46 |
